Laboratory results published in patent US20210380664A1 (AICURIS ANTI INFECTIVE CURES, published 2021).

Target: HCMV virus particles, strain TB40/E
Assay: cell-based or functional assay

B1: PDGFR-alpha derived 40mer peptide GT40 (peptide)
peptide: GRHIYIYVPDPDVAFVPLGMTDYLVIVEDDDSAIIPCRTT
EC50 of inhibition of infection of HFFs by peptide: 2000 nM
